From paper PMC10944485, “Structure of full-length ERGIC-53 in complex with MCFD2 for cargo transport” (Nature Communications, 2024)

Experiments:
[1] = target: ERGIC-53 ΔH34 mutant with a C-terminal FLAG (human) (UniProt P49257); assay: cryo-EM structure; ERGIC-53 ΔH34-MCFD2 complex, 1.7 mg/ml
[2] = target: T1, full-length human ERGIC-53 with a C-terminal PA tag (human), P49257; assay: SEC-MALS; ERGIC-53 at weakly acidic Golgi pH (pH 6.5); settings: remark: other sources report otherwise
T1 chain: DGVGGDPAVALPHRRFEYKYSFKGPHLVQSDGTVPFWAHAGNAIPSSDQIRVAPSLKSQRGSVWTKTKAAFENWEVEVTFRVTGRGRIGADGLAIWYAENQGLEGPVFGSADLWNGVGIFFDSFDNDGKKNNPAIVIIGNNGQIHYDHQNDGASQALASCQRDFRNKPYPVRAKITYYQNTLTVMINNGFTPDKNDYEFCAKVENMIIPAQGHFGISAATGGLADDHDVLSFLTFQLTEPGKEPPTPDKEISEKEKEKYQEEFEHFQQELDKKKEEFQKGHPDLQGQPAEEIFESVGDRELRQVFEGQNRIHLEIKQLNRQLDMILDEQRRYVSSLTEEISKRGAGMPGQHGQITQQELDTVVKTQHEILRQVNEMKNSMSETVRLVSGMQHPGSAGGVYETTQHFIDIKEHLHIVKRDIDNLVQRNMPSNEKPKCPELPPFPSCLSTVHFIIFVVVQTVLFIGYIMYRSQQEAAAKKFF

[3] = target: T1, full-length human ERGIC-53 with a …; assay: cryo-EM structure; full-length ERGIC-53 with MCFD2, 4-5 mg/ml in GDN with 3 mM fluorinated Fos-Choline-8; head region forms A and B, four substates, and full-length map; settings: remark: other sources report otherwise
[4] = target: T1, full-length human ERGIC-53 with a …; assay: SEC-MALS; Superdex 200 Increase 3.2/300; 20 mM Tris-HCl pH 7.5, 150 mM NaCl, 10 mM CaCl2, 0.02% GDN; samples 1.6-1.7 mg/ml; conjugate analysis (MALS-UV-RI); ERGIC-53 alone and its complex with MCFD2; settings: remark: other sources report otherwise
[5] = target: T2, full-length human ERGIC-53 with a C-terminal PA tag (human, UniProt P49257 31-510); assay: as above; settings: both partners purified
T2 construct: ERGIC-53 (LMAN1), human, full length; cDNA subcloned from a HeLa cDNA library; Eluted from the beads with PA peptide; no step that removes the tag is described; Treated with 1 mM diamide before SEC; mixture of covalent (disulfide-linked) and noncovalent tetramers; The CRD is numbered from residue 31, so the signal peptide is probably cut off in the cells (surmised); also called LMAN1; P58
T2 sequence (looked up): T1 chain

Q: “ERGIC-53 ΔH34 mutant with a C-terminal FLAG (from UniProt P49257 31-510) (receptor)” was tested. Which stoichiometry N [1] did it give?
A: 4

B1: full-length human ERGIC-53 with a C-terminal PA tag, P49257 31-510 (receptor)
chain: T1 chain
Q: What does the source list for B1?
A: stoichiometry N [2]: 4; stoichiometry N [3]: 4; stoichiometry N [4]: 4

B2: human MCFD2 lumen domain (residues 27-146) (domain or fragment, UniProt Q8NI22 27-146, looked up)
chain: EEPAASFSQPGSMGLDKNTVHDQEHIMEHLEGVINKPEAEMSPQELQLHYFKMHDYDGNNLLDGLELSTAITHVHKEEGSEQAPLMSEDELINIIDGVLRDDDKNNDGYIDYAEFAKSLQ
notes: MCFD2, human, lumen domain, residues 27-146, in pET15b; Thrombin cleavage of the pET15b His tag probably leaves a few vector residues at the N-terminus (surmised); also called multiple coagulation factor deficiency 2; source: E. coli BL21 (DE3), purified (Ni-NTA, MonoQ, thrombin cleavage, SEC); not shown: His tag, N-terminal, cleaved
Q: B2 was tested. Which “stoichiometry N” value [5] did it give?
A: 1
